This assay deals with neural stem cell surface (cell surface molecule(s) of NSCs, not identified) (rat (adult hippocampus, stated in Example 1)). Put plainly: flow cytometry, GFP bacterial clone displaying the peptide on NSCs. (In general: In flow cytometry, cells or beads pass a laser one at a time.)
Take YMCMSRGDATCDV [clone 7C-4 peptide]: the % NSCs with Bacteria turned out to be 62%. For SLCAAYNRWACIW [clone Co-1 peptide], the % NSCs with Bacteria worked out at 73.8%. Molecule WWCDMRGDSRCSG [clone 7C-24 peptide] came in with a % NSCs with Bacteria of 61.7%.

In turn, WVCNDLIHHFCVW [clone Co-15 peptide] had a % NSCs with Bacteria of 70.9%. As for WLCLDKNCMACVW [clone 7C-8 peptide], the figure is 68.8%; as for DLCTYGHLWLGNGRP [clone 15-59 peptide], 22.5%. WRCLGDGYHACVR [clone Co-10 peptide] yielded a % NSCs with Bacteria of 72.7%. In the case of QCCQLRGDAVCNC [clone 7C-15 peptide] it was 54%; in that of FWCIRGEYWVCDR [clone 7C-12 peptide], 64.5%; in that of SDWSVLLSCERWYCI [clone 15-16 peptide], 63.9%. The molecule GFVLVWSYTCRCWGK [clone 15-50 peptide] showed a % NSCs with Bacteria of 64.9%. In the case of LCCESYICALCHY [clone 7C-11 peptide] it was 37.7%; in that of LEDAMGWALSWGHIW [clone 15-6 peptide], 70.2%; in that of STCSWVSSYVCIM [clone Co-13 peptide], 64.8%.

For IWCGSRFGCWCKP [clone 7C-5 peptide], the % NSCs with Bacteria came to 65.6%. The molecule WVCNKLGVYACEY [clone 7C-19 peptide] had a % NSCs with Bacteria of 20.5%. In turn, LECPGESKYYCIY [clone Co-11 peptide] registered a % NSCs with Bacteria of 72.7%. As for ESCWYQIMYKCAN [clone 7C-2 peptide], the figure is 55.2%. As for WWCKKPEYWYCIW [clone Co-18 peptide], the figure is 71.3%; as for WDCGKKNAWMCIW [clone Co-5 peptide], 67.4%. For LECTERGDFNCFV [clone 7C-7 peptide], the % NSCs with Bacteria worked out at 47.8%.

Turning to GECFYYVMNTCVW [clone 7C-6 peptide], the % NSCs with Bacteria was found to be 61.8%. Consider WNCIKGSSWACVW [clone 7C-21 peptide], for which the % NSCs with Bacteria came out at 75.5%.

The molecule LVCNRQNPWVCYI [clone Co-23 peptide] showed a % NSCs with Bacteria of 71.1%. In turn, GGCRWYAKWVCVW [clone Co-3 peptide] came in with a % NSCs with Bacteria of 75.7%.

WVCLWRHRGDCSI [clone Co-12 peptide] gave a % NSCs with Bacteria of 74.3%.

For SKCWGWTPYYCVA [clone Co-9 peptide], the % NSCs with Bacteria worked out at 75.7%.

WSCPKVNQYACFW [clone Co-2 peptide] yielded a % NSCs with Bacteria of 74.8%. As for DHKFGLVMLNKYAYAG [clone 15-2 peptide], the figure is 75.9%; as for WFCLLGRSAYCVR [clone 7C-3 peptide], 71.9%.

In the case of WQCGRFWCIHCLW [clone Co-19 peptide], the % NSCs with Bacteria stood at 50.6%.

Turning to WLCKGSNKYMCEW [clone 7C-17 peptide], the % NSCs with Bacteria amounted to 67.8%. As for ESGLKVMCMKYYCMA [clone 15-52 peptide], the figure is 63.3%. Molecule MYCERDSKYWCIH [clone Co-21 peptide] returned a % NSCs with Bacteria of 70.9%. As for WYCFRENKYVCVM [clone 7C-1 peptide], the figure is 75.2%; as for WTWESAFAGRWEVGD [clone Co-8 peptide], 61.7%; as for QGCAFVTYWACIF [clone Co-16 peptide], 71.9%. In the case of WECAEESKFWCVF [clone Co-17 peptide], the % NSCs with Bacteria was 72.1%. Molecule RLCCWKTQYFCEI [clone Co-20 peptide] returned a % NSCs with Bacteria of 70.9%.

As for RRELVRMTDWVWVSG [clone 15-32 peptide], the % NSCs with Bacteria came out at 70.4%. In the case of WVCIWERFKSCNE [clone 7C-20 peptide] it was 65.7%; in that of VWCGMFGKRRCVT [clone Co-22 peptide], 75.6%.

Consider LNCAMYNACIW [clone 7C-14 peptide], for which the % NSCs with Bacteria came to 54.5%.

With KLCCFDKGYYCMR [clone 7C-9 peptide], the % NSCs with Bacteria was 71.3%. As for WMCSGVQPNACVW [clone 7C-22 peptide], the % NSCs with Bacteria was 46.9%.

The values are drawn from patent US20100189760A1.
